{"source": "paper PMC12326988", "about": "“Synthetic host defense peptide inhibits SARS-CoV-2 replication in vitro” (Antimicrobial Agents and Chemotherapy, 2025)", "origin": "cited, not measured here", "molecules": {"B1": {"name": "HD5 (peptide, UniProt Q01523 20-94, looked up)", "Defensin alpha 5": "ESLQERADEATTQKQSGEDNQDLAISFAGNGLSALRTSGSQARATCYCRTGRCATRESLSGVCEISGRLYRLCCR", "modifications": "Defensin-5"}}, "tested_on": "binding of the SARS-CoV-2 RBD to its human ACE2 receptor"}
{"molecule": "B1", "values": [{"measurement": "affinity, interference with binding of SARS-CoV-2 RBD to human ACE2", "result": 76.2, "unit": "nM"}]}
